Results from patent US20230338524A1.

Assays:
[1] = biological target: soluble murine VEGFR2 (murine) (UniProt P35918); assay: ELISA, OD450, panel 'mVEGFR2', antibody titrated (Log (M))
mouse VEGFR2 (mouse) = mouse VEGFR2 (mouse) (UniProt P35918); assay: Blocking ELISA, panel 'mVEGF-mVEGFR2'; blocked ligand murine VEGF; antibody titrated (Log (M))
Sequence of mouse VEGFR2 (mouse) (P35918 20-762 limits assumed): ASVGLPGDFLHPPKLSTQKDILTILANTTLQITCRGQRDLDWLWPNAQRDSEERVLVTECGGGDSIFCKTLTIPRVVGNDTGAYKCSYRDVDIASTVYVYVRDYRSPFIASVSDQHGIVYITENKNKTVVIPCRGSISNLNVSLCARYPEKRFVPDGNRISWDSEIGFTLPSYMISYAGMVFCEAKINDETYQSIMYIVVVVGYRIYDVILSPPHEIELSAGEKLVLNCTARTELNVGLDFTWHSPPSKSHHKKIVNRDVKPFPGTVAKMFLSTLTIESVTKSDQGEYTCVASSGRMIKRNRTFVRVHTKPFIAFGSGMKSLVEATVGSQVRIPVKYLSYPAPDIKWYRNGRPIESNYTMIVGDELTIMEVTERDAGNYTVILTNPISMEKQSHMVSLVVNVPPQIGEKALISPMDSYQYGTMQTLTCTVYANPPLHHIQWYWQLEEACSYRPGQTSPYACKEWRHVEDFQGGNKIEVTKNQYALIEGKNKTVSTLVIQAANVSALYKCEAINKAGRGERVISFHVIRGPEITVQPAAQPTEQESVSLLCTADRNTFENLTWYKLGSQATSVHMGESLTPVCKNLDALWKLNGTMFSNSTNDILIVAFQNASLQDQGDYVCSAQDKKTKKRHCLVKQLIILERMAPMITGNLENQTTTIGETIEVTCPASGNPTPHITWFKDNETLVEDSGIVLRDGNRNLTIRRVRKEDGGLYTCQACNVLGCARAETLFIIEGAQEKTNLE

Sequence of soluble murine VEGFR2 (murine) (P35918 20-762 limits assumed): as above

B1: DC101 (a murine monoclonal Ab that binds to murine VEGFR2) (antibody, from another filing, V domains shown)
VH: EVQLVETGGGLVQPGNSLKLSCATSGFIFSTTWMNWIRQTPGKRLEWLAQIEDKSNNYFISYSESVKGRFTISRDDSKSSVYLQMNNLKEEDTAIYYCSWKYRSNYYFDYWGQGVMVTVSS
VL: DIVLTQSPALAVSLEQRATISCKTSQNVDYYGISYLHWYQQKPGQQPKLLIYEGSNLASGIPARFSGSGSGTDFTLTIDPVEADDIVTYYCQQSKDYPYTFGAGTKLELKR
EC50 (read off the curve) [1]: 300 pM
IC50 (read off the curve) (mouse VEGFR2 (mouse)): 500 pM
